Literature values as cited in paper PMC5689459.
pKi: −log10 of the molar value.

Target: delta-opioid receptor (Homo sapiens) (UniProt P41143)
Experiment: radioligand

Morphiceptin, sequence (P02666 whole entry, looked up): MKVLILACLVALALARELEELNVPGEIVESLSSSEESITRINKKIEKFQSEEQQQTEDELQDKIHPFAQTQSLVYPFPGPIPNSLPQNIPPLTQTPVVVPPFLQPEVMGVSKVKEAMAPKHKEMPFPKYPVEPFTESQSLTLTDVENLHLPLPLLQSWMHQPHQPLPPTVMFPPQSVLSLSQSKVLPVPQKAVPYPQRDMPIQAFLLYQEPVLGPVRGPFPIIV

pKi: < 5.00
Substance: Morphiceptin (from UniProt P02666)
